Here are results for two molecules from article PMC3085965 (Archives of biochemistry and biophysics, 2011).

In the experiment the target is Thrombospondin-1 (human, purified from platelets) (human, UniProt P07996 19-1170, 125I label (where used as 125I-TSP1)). The experiment in a line: radioligand binding.
Sequence of Thrombospondin-1 (human, purified from platelets) (P07996 19-1170): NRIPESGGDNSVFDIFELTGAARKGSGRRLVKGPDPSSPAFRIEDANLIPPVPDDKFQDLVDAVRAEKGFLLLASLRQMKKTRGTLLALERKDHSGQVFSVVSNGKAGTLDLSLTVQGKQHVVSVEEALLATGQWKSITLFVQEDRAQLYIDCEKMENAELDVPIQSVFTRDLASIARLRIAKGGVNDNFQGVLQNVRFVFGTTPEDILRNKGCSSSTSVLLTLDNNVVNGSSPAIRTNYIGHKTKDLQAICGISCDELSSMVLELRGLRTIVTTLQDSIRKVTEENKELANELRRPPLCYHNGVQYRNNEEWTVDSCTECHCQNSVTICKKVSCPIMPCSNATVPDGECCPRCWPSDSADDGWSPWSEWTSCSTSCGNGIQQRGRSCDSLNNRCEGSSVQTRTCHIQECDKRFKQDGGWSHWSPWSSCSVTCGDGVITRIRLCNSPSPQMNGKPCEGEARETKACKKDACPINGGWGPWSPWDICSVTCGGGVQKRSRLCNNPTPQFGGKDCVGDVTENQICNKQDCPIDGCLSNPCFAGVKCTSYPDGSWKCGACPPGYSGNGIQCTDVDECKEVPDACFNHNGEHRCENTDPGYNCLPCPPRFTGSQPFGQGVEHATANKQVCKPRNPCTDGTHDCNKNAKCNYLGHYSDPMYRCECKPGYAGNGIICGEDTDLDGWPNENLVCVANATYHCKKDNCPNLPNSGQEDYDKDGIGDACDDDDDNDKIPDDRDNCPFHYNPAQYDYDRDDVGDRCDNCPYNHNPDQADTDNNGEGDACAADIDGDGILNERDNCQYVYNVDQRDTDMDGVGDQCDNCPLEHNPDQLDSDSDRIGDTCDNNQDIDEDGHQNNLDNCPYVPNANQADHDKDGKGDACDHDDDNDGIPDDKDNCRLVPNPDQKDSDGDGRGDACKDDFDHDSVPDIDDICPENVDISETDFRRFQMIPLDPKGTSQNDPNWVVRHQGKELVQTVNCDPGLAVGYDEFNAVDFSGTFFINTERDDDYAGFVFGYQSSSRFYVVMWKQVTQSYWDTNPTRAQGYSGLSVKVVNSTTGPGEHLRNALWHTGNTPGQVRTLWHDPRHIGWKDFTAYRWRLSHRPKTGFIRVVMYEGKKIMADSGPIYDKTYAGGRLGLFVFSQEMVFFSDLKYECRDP

B1: full-length recombinant human sFRP-1 (natural protein, UniProt Q8N474 32-314, looked up)
chain: SEYDYVSFQSDIGPYQSGRFYTKPPQCVDIPADLRLCHNVGYKKMVLPNLLEHETMAEVKQQASSWVPLLNKNCHAGTQVFLCSLFAPVCLDRPIYPCRWLCEAVRDSCEPVMQFFGFYWPEMLKCDKFPEGDVCIAMTPPNATEASKPQGTTVCPPCDNELKSEAIIEHLCASEFALRMKIKEVKKENGDKKIVPKKKKPLKLGPIKKKDLKKLVLYLKNGADCPCHQLDNLSHHFLIMGRKVKSQYLLTAIHKWDKKNKEFKNFMKKMKNHECPTFQSVFK
The molecule B1 yielded a Kd of 48 nM.

B2: full-length recombinant human sFRP-2 (natural protein, UniProt Q96HF1 25-295, looked up)
chain: LFLFGQPDFSYKRSNCKPIPANLQLCHGIEYQNMRLPNLLGHETMKEVLEQAGAWIPLVMKQCHPDTKKFLCSLFAPVCLDDLDETIQPCHSLCVQVKDRCAPVMSAFGFPWPDMLECDRFPQDNDLCIPLASSDHLLPATEEAPKVCEACKNKNDDDNDIMETLCKNDFALKIKVKEITYINRDTKIILETKSKTIYKLNGVSERDLKKSVLWLKDSLQCTCEEMNDINAPYLVMGQKQGGELVITSVKRWQKGQREFKRISRSIRKLQC
The molecule B2 showed a Kd of 95 nM.

The Kd is the concentration at which binding is half-saturated.
